B1: Protein DDI1 homolog 1 (Homo sapiens), Q8WTU0 (parent)
chain: MLITVYCVRRDLSEVTFSLQVSPDFELRNFKVLCEAESRVPVEEIQIIHMERLLIEDHCSLGSYGLKDGDIVVLLQKDNVGPRAPGRAPNQPRVDFSGIAVPGTSSSRPQHPGQQQQRTPAAQRSQGLASGEKVAGLQGLGSPALIRSMLLSNPHDLSLLKERNPPLAEALLSGSLETFSQVLMEQQREKALREQERLRLYTADPLDREAQAKIEEEIRQQNIEENMNIAIEEAPESFGQVTMLYINCKVNGHPLKAFVDSGAQMTIMSQACAERCNIMRLVDRRWAGVAKGVGTQRIIGRVHLAQIQIEGDFLQCSFSILEDQPMDMLLGLDMLRRHQCSIDLKKNVLVIGTTGTQTYFLPEGELPLCSRMVSGQDESSDKEITHSVMDSGRKEH
partner: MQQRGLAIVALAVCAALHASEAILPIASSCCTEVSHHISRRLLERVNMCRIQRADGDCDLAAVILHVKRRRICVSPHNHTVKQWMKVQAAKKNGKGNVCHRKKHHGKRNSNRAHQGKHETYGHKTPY
B2: Syntenin-2 (Homo sapiens), Q9H190 (parent)
chain: MSSLYPSLEDLKVDQAIQAQVRASPKMPALPVQATAISPPPVLYPNLAELENYMGLSLSSQEVQESLLQIPEGDSTAVSGPGPGQMVAPVTGYSLGVRRAEIKPGVREIHLCKDERGKTGLRLRKVDQGLFVQLVQANTPASLVGLRFGDQLLQIDGRDCAGWSSHKAHQVVKKASGDKIVVVVRDRPFQRTVTMHKDSMGHVGFVIKKGKIVSLVKGSSAARNGLLTNHYVCEVDGQNVIGLKDKKIMEILATAGNVVTLTIIPSVIYEHMVKKLPPVLLHHTMDHSIPDA
partner: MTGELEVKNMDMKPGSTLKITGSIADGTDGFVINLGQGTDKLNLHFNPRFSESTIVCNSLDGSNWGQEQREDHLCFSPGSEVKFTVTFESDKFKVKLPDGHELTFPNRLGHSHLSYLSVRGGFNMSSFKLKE
B3: G2/M phase-specific E3 ubiquitin-protein ligase (Homo sapiens), Q7L622 (parent)
chain: MNESKPGDSQNLACVFCRKHDDCPNKYGEKKTKEKWNLTVHYYCLLMSSGIWQRGKEEEGVYGFLIEDIRKEVNRASKLKCCVCKKNGASIGCVAPRCKRSYHFPCGLQRECIFQFTGNFASFCWDHRPVQIITSNNYRESLPCTICLEFIEPIPSYNILRSPCCKNAWFHRDCLQVQAINAGVFFFRCTICNNSDIFQKEMLRMGIHIPEKDASWELEENAYQELLQHYERCDVRRCRCKEGRDYNAPDSKWEIKRCQCCGSSGTHLACSSLRSWEQNWECLECRGIIYNSGEFQKAKKHVLPNSNNVGITDCLLEESSPKLPRQSPGSQSKDLLRQGSKFRRNVSTLLIELGFQIKKKTKRLYINKANIWNSALDAFRNRNFNPSYAIEVAYVIENDNFGSEHPGSKQEFLSLLMQHLENSSLFEGSLSKNLSLNSQALKENLYYEAGKMLAISLVHGGPSPGFFSKTLFNCLVYGPENTQPILDDVSDFDVAQIIIRINTATTVADLKSIINECYNYLELIGCLRLITTLSDKYMLVKDILGYHVIQRVHTPFESFKQGLKTLGVLEKIQAYPEAFCSILCHKPESLSAKILSELFTVHTLPDVKALGFWNSYLQAVEDGKSTTTMEDILIFATGCSSIPPAGFKPTPSIECLHVDFPVGNKCNNCLAIPITNTYKEFQENMDFTIRNTLRLEKEESSHYIGH
partner: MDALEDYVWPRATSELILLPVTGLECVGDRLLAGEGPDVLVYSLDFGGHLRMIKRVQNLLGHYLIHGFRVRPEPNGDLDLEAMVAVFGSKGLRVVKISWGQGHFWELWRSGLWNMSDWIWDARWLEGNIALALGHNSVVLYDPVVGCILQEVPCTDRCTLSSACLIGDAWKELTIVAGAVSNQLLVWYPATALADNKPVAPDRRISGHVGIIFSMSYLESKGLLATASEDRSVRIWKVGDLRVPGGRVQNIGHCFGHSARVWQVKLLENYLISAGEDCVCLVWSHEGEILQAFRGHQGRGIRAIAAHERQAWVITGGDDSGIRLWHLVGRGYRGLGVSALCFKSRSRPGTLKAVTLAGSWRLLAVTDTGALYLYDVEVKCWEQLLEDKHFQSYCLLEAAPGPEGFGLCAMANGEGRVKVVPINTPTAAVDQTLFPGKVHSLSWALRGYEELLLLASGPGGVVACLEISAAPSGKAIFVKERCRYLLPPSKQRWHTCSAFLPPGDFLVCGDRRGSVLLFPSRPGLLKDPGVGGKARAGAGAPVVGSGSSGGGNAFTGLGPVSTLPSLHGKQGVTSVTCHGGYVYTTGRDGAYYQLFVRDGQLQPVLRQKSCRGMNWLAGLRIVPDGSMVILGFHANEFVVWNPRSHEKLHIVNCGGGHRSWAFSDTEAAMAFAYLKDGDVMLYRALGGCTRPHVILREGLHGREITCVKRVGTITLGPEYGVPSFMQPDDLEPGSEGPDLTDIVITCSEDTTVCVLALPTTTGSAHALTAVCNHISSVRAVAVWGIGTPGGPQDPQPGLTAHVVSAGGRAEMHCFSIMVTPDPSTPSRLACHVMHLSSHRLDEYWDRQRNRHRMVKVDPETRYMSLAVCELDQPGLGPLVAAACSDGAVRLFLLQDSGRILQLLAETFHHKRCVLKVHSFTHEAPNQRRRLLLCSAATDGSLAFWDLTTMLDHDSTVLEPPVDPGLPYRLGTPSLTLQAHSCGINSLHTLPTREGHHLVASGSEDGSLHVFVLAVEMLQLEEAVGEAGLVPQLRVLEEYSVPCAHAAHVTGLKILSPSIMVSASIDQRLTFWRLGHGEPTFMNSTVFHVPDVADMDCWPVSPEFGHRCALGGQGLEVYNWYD
B4: Tumor susceptibility gene 101 protein (Homo sapiens), Q99816 (parent)
chain: MAVSESQLKKMVSKYKYRDLTVRETVNVITLYKDLKPVLDSYVFNDGSSRELMNLTGTIPVPYRGNTYNIPICLWLLDTYPYNPPICFVKPTSSMTIKTGKHVDANGKIYLPYLHEWKHPQSDLLGLIQVMIVVFGDEPPVFSRPISASYPPYQATGPPNTSYMPGMPGGISPYPSGYPPNPSGYPGCPYPPGGPYPATTSSQYPSQPPVTTVGPSRDGTISEDTIRASLISAVSDKLRWRMKEEMDRAQAELNALKRTEEDLKKGHQKLEEMVTRLDQEVAEVDKNIELLKKKDEELSSALEKMENQSENNDIDEVIIPTAPLYKQILNLYAEENAIEDTIFYLGEALRRGVIDLDVFLKHVRLLSRKQFQLRALMQKARKTAGLSDLY
B5: Glycodelin (Homo sapiens), P09466 (parent)
chain: MLCLLLTLGVALVCGVPAMDIPQTKQDLELPKLAGTWHSMAMATNNISLMATLKAPLRVHITSLLPTPEDNLEIVLHRWENNSCVEKKVLGEKTENPKKFKINYTVANEATLLDTDYDNFLFLCLQDTTTPIQSMMCQYLARVLVEDDEIMQGFIRAFRPLPRHLWYLLDLKQMEEPCRF
partner: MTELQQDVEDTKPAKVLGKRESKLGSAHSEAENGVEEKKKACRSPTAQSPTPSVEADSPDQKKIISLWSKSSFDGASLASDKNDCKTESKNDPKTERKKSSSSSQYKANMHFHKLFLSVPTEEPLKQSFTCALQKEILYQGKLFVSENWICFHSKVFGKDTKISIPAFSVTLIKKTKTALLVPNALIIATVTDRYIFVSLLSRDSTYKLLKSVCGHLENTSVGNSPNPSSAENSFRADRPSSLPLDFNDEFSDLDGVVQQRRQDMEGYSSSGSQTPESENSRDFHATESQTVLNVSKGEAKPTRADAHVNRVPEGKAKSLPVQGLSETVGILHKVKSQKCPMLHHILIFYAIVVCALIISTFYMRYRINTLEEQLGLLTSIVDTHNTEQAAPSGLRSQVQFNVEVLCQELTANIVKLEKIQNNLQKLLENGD
B6: Notch homolog 2 N-terminal-like protein A (Homo sapiens), Q7Z3S9 (parent)
chain: MCVTYHNGTGYCKCPEGFLGEYCQHRDPCEKNRCQNGGTCVAQAMLGKATCRCASGFTGEDCQYSTSHPCFVSRPCLNGGTCHMLSRDTYECTCQVGFTGKECQWTDACLSHPCANGSTCTTVANQFSCKCLTGFTGQKCETDVNECDIPGHCQHGGTCLNLPGSYQCQCLQGFTGQYCDSLYVPCAPSPCVNGGTCRQTGDFTFECNCLPETVRRGTELWERDREVWNGKEHDEN
partner: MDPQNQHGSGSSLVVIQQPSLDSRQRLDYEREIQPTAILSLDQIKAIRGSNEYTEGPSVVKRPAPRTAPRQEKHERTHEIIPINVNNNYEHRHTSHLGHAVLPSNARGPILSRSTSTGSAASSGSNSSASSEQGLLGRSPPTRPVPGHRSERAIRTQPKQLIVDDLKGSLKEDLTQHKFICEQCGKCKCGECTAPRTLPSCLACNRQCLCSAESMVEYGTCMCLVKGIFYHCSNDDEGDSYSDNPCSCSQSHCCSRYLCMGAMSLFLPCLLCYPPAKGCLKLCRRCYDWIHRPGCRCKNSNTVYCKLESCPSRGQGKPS

Variants of: B1
Details: with ccl28_human CCL28, Q9NRJ3

| Variant | effect of a mutation on the interaction |
| --- | --- |
| G136S | with no effect |
| S63A | with no effect |
| R87C | with no effect |
| R208G | disrupting interaction strength |
| D323N | with no effect |

Variants of: B2
Details: with leg2_human LGALS2, P05162

| Variant | effect of a mutation on the interaction |
| --- | --- |
| R223C | disrupting interaction strength |

Variants of: B3
Details: with wdr6_human WDR6, Q9NNW5

| Variant | effect of a mutation on the interaction |
| --- | --- |
| P328L | with no effect |

Variants of: B4
Details: with hgs_human HGS

| Variant | effect of a mutation on the interaction |
| --- | --- |
| M167I | with no effect |

Variants of: B5
Details: with grm2b_human GRAMD2B

| Variant | effect of a mutation on the interaction |
| --- | --- |
| Q126K | with no effect |

Variants of: B6
Details: with spy1_human SPRY1, O43609

| Variant | effect of a mutation on the interaction |
| --- | --- |
| A115T | with no effect |
| R74Q | with no effect |

Source: IntAct's records for PubMed 31515488
